Results on 1 substance are retold here after publication PMC9972910.

Test [1] addresses LptB2FG complex (Escherichia coli) (UniProt P0A9V1). Description: SPR; LptB2FG or LptB2F^R212GG covalently immobilised, increasing concentrations of monomeric LptA flowed over; fitted at equilibrium; details in Text S1. Background: Surface plasmon resonance follows binding to a sensor surface in real time, without labels.
In test [2] the target is LptB2F^R212GG complex (Escherichia coli) (UniProt P0A9V1). Described as above.

pKd: −log10 of the molar value.

As usually defined, the pKd is the negative decadic logarithm of the Kd, by convention in mol/L. Low values mean a high Kd, high ones a low Kd. Consider “monomeric version of LptA (from UniProt P0ADV1 28-159) (domain or fragment)”, for which the results for the negative-log Kd (pKd) in test [1] and in test [2] were 4.13 and 4.09, respectively.
